Here are results for one molecule from patent WO2016038310A1 (dated 2016).

For experiment [1], the target named is T1, FSH ovine dimérique (ovine follicle-stimulating hormone) (ovine, UniProt P01218 25-120; P01227 20-129). The experiment is described as follows: cell-based or functional assay.
Experiment [2] concerns the target T2, FSH humaine recombinante Gonal-F (recombinant human FSH, Merck Serono) (human, UniProt P01215 25-116; P01225 19-129).
T2 construct: Commercial recombinant preparation; also called hFSH Gonal F; hFSH
The experiment is described as follows: SPR (Biacore T100), A8 captured on anti-mouse Fc, hFSH injected.

Experiment [3] has as its target T1, FSH ovine dimérique (ovine …). The experiment is described as follows: SPR (Biacore T100), A8 captured on anti-mouse Fc, oFSH injected. For orientation: Surface plasmon resonance follows binding to a sensor surface in real time, without labels.
Experiment [4] has as its target T2, FSH humaine recombinante Gonal-F …. Description: SPR (Biacore T100), A8 captured on anti-mouse Fc, hFSH injected 1,56 to 50nM.
Experiment [5] addresses T1, FSH ovine dimérique (ovine …). Description: SPR (Biacore T100), A8 captured on anti-mouse Fc, oFSH injected 1,56 to 50nM.
For experiment [6], the target named is T3, eCG commerciale Chronogest (MSD) (equine, UniProt P01220 25-120; P08751 21-169).
T3 construct: Commercial preparation; also called eCG Chronogest
T3 sequence (P01220 25-120 limits assumed, chain 1 of 2): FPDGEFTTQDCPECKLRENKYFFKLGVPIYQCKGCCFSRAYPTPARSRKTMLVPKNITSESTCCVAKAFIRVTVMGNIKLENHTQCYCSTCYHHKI
T3 sequence (P08751 21-169 limits assumed, chain 2 of 2): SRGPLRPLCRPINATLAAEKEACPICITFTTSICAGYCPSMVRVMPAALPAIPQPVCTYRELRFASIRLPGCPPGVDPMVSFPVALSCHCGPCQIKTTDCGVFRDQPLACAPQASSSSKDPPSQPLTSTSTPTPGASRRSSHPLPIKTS
The experiment is described as follows: ELISA saturation binding, Kd estimated with GraphPad Prism (one site - specific binding).

Experiment [7] addresses T4, hCG Chorulon (human chorionic gonadotropin extracted from urine, MSD) (human, UniProt P01215 25-116; P0DN86 21-165).
T4 construct: Commercial preparation
The description is as above.

The target of experiment [8] is T5, hCG Endo 5000 (purified human chorionic gonadotropin, Schering-Plough) (human, UniProt P01215 25-116; P0DN86 21-165).
T5 construct: Commercial preparation; also called Gonadotropine Chorionique Endo5000
T5 sequence (P01215 25-116 limits assumed, chain 1 of 2, other chains not shown): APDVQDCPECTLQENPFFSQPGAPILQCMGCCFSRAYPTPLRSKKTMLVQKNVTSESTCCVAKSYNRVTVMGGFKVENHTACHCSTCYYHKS
Described as above.

T2 sequence (P01215 25-116 limits assumed, chain 1 of 2): as the sequence (P01215 25-116 limits assumed, chain 1 of 2, other chains not shown) above
T2 sequence (P01225 19-129 limits assumed, chain 2 of 2): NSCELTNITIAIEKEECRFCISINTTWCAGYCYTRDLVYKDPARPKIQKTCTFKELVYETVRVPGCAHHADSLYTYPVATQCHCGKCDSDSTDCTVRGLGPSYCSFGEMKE
T4 sequence (P01215 25-116 limits assumed, chain 1 of 2, other chains not shown): as the sequence (P01215 25-116 limits assumed, chain 1 of 2, other chains not shown) above

B1: anticorps monoclonal A8 (monoclonal antibody A8, hybridoma CNCM I-4828) (antibody, V domains shown)
VH: EVQLQESGGGLVQPGGSRKLSCAASGFTFSDFGTHWIRQAPEKGLEWVAYISSGSSTRYYADTVKGRFTISRDDPKNTLFLQMTSLRSEDTAMYYCARSYDGYHVPSFAYWGQGTLVTVSA
VL: DVLMTQTPLSLSVSLGDQASISCRSSQNIVHSNGNTYLEWYLQKPGQSPKLLIYRVSNRFSGIPDRFSGSSSGTDFTLKISRVEAEDLGVYYCFQGSHVPLTFGAGTKLELK
notes: Purified antibody or hybridoma supernatant, depending on the assay; also called AcM A8; ligand A8
With B1, the “sécrétion d'AMPc (cAMP secretion), bovine granulosa cells, oFSH 3ng/ml” value in experiment [1] worked out at 2.1 fold. The “sécrétion d'AMPc (cAMP secretion), bovine granulosa cells, oFSH 12,5 ng/ml” value in experiment [1] was found to be 1.5 fold. Besides, the figures for the off-rate constant (koff) in experiment [2] and in experiment [3] were 0.0011 s⁻¹ and 0.00082 s⁻¹, respectively. Further, the kon is 240000 M⁻¹ s⁻¹ in experiment [2] and 130000 M⁻¹ s⁻¹ in experiment [3]. Besides, the Kd was 4.7 nM in experiment [4]; 6.3 nM in experiment [5]; ~100 nM in experiment [6]; ~100 nM in experiment [7]; ~100 nM in experiment [8].

In general, koff refers to the rate constant with which the complex falls apart. As a reminder, the kon is the second-order rate constant of association. For orientation: Kd means a measure of binding affinity in units of concentration.
